Biological target: IGF-1 receptor (IGF1R) on DU145 cells and on immortalized human meibomian gland epithelial cells (human) (UniProt P08069)
Assay: cell-based or functional assay

Sequence of IGF-1 receptor (IGF1R) on DU145 cells and on immortalized human meibomian gland epithelial cells (human) (P08069 31-1367): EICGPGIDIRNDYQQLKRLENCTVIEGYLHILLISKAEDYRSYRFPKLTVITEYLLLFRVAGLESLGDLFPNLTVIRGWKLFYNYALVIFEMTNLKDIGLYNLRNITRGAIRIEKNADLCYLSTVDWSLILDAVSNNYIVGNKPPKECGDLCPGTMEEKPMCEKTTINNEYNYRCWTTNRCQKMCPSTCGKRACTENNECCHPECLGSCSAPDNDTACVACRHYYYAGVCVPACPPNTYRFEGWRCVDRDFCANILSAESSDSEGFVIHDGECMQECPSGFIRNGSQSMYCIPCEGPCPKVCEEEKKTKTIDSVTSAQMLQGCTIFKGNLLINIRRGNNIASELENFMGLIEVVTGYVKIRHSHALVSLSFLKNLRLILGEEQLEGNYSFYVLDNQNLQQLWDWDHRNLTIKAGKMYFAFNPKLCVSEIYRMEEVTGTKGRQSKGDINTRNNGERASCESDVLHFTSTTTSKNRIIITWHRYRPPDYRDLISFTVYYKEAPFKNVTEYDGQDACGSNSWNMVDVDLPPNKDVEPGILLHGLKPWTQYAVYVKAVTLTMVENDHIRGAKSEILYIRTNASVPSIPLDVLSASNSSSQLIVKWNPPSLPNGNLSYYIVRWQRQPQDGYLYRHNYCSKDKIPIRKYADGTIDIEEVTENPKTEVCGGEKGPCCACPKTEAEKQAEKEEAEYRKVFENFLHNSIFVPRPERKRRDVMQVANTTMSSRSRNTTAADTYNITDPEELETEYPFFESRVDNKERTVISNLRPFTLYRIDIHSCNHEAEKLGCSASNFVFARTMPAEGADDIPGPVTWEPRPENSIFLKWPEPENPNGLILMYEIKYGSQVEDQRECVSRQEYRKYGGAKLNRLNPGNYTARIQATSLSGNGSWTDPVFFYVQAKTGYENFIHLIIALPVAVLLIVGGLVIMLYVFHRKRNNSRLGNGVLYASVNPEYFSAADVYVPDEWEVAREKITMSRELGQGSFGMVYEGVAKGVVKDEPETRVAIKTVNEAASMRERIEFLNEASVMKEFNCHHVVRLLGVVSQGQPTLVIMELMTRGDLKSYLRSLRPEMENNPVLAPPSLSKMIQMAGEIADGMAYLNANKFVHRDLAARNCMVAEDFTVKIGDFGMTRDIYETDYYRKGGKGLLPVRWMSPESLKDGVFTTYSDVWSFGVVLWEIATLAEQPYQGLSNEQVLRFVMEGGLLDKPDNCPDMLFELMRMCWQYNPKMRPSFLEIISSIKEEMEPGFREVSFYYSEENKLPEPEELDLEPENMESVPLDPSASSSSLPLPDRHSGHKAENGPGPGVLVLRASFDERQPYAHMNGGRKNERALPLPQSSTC

Row | Substance | EC50 of AKT S473 phosphorylation in DU145 cells [nM]
1 | IGF-1 Ea (SEQ ID NO: 7) (from UniProt P17647 26-130) (ligand) | 8.7
2 | IGF-1 Des1-3 (SEQ ID NO: 8) (ligand) | 2.3
3 | IGF-1 E3R (SEQ ID NO: 4) (from UniProt P05019 49-118) (ligand) | 4.5

Source: US20250376500A1
